Data as given in patent US20250163162A1 (SYNTHEKINE, published 2025).

Key:
Assay in all cases: cell-based or functional assay
[1] = target: T1, IL10Rα/IL2Rγ receptor (human, UniProt Q13651 22-578; P31785 23-369)
T1 sequence (looked up) 1: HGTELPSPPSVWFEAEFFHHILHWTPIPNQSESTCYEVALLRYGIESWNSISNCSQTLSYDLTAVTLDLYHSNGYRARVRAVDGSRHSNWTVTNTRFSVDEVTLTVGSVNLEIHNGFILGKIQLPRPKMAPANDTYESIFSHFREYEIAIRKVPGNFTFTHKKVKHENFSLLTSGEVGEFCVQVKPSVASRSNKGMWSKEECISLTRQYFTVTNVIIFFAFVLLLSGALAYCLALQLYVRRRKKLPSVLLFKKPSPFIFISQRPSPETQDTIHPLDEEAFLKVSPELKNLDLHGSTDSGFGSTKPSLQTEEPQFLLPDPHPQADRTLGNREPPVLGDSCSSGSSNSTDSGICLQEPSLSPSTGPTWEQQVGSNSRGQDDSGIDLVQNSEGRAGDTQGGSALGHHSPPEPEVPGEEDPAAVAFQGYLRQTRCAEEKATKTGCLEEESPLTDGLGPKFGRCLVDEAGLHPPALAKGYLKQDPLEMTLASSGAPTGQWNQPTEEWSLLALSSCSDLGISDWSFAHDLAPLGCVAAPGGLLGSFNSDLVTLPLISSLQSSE
T1 sequence (looked up) 2: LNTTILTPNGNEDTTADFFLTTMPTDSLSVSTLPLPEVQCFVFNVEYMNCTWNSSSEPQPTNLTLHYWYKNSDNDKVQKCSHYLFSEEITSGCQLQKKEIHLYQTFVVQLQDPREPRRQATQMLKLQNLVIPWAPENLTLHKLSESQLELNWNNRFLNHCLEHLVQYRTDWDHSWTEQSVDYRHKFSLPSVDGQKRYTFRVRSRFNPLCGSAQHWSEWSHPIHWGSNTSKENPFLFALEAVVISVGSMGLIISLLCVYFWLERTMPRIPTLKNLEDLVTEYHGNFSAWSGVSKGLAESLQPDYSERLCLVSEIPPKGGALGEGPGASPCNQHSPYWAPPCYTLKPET

[2] = target: T1, IL10Rα/IL2Rγ receptor; remark: listed apart in the source
[3] = target: T1, IL10Rα/IL2Rγ receptor; remark: listed apart in the source
[4] = target: T1, IL10Rα/IL2Rγ receptor; remark: listed apart in the source
[5] = target: T1, IL10Rα/IL2Rγ receptor; remark: listed apart in the source
[6] = target: T1, IL10Rα/IL2Rγ receptor; remark: listed apart in the source

B1: DR471(DR241-DR231) (bispecific antibody)
chain: QVQLQESGGGSVQAGGSLRLSCAASGYSNCSYDMTWYRQAPGKEREFVSAIHSDGSTRYADSVKGRFFISQDNAKNTVYLQMNSLKPEDTAMYYCKTDPLHCRAHGGSWYSVRANYWGQGTQVTVSSGGGSQVQLQESGGGSVQAGGSLRLSCTASGFTFDDREMNWYRQAPGNECELVSTISSDGSTYYADSVKGRFTISQDNAKNTVYLQMDSVKPEDTAVYYCAADFMIAIQAPGAGCWGQGTQVTVSSASHHHHHH
[1]
  pSTAT3 MFI, B cells, 100 nM (unstimulated 1045): 1140 MFI
  pSTAT3 MFI, CD4+ T cells, 100 nM (unstimulated 1778): 6240 MFI
  pSTAT3 MFI, CD8+ T cells, 100 nM (unstimulated 1288): 4220 MFI
  pSTAT3 MFI, Monocytes, 100 nM (unstimulated 1787): 1940 MFI
  pSTAT3 MFI, NK cells, 100 nM (unstimulated 1149): 1700 MFI
[2]
  pSTAT3 MFI, CD8 T cells, 0.0001 nM (unstimulated 1446): 1400 MFI
  pSTAT3 MFI, CD8 T cells, 0.001 nM (unstimulated 1446): 1420 MFI
  pSTAT3 MFI, CD8 T cells, 0.01 nM (unstimulated 1446): 1420 MFI
  pSTAT3 MFI, CD8 T cells, 0.1 nM (unstimulated 1446): 1640 MFI
  pSTAT3 MFI, CD8 T cells, 1 nM (unstimulated 1446): 3280 MFI
  pSTAT3 MFI, CD8 T cells, 10 nM (unstimulated 1446): 4610 MFI
  pSTAT3 MFI, CD8 T cells, 100 nM (unstimulated 1446): 4400 MFI
[3]
  pSTAT3 MFI, CD4 T cells, 0.0001 nM (unstimulated 1887): 1800 MFI
  pSTAT3 MFI, CD4 T cells, 0.001 nM (unstimulated 1887): 1860 MFI
  pSTAT3 MFI, CD4 T cells, 0.01 nM (unstimulated 1887): 1860 MFI
  pSTAT3 MFI, CD4 T cells, 0.1 nM (unstimulated 1887): 2250 MFI
  pSTAT3 MFI, CD4 T cells, 1 nM (unstimulated 1887): 4600 MFI
  pSTAT3 MFI, CD4 T cells, 10 nM (unstimulated 1887): 6800 MFI
  pSTAT3 MFI, CD4 T cells, 100 nM (unstimulated 1887): 6200 MFI
[4]
  pSTAT3 MFI, B cells, 0.0001 nM (unstimulated 1193.5): 1110 MFI
  pSTAT3 MFI, B cells, 0.001 nM (unstimulated 1193.5): 1120 MFI
  pSTAT3 MFI, B cells, 0.01 nM (unstimulated 1193.5): 1110 MFI
  pSTAT3 MFI, B cells, 0.1 nM (unstimulated 1193.5): 1110 MFI
  pSTAT3 MFI, B cells, 1 nM (unstimulated 1193.5): 1170 MFI
  pSTAT3 MFI, B cells, 10 nM (unstimulated 1193.5): 1340 MFI
  pSTAT3 MFI, B cells, 100 nM (unstimulated 1193.5): 1280 MFI
[5]
  pSTAT3 MFI, Monocytes, 0.0001 nM (unstimulated 2116): 2010 MFI
  pSTAT3 MFI, Monocytes, 0.001 nM (unstimulated 2116): 2030 MFI
  pSTAT3 MFI, Monocytes, 0.01 nM (unstimulated 2116): 2000 MFI
  pSTAT3 MFI, Monocytes, 0.1 nM (unstimulated 2116): 1990 MFI
  pSTAT3 MFI, Monocytes, 1 nM (unstimulated 2116): 2030 MFI
  pSTAT3 MFI, Monocytes, 10 nM (unstimulated 2116): 2230 MFI
  pSTAT3 MFI, Monocytes, 100 nM (unstimulated 2116): 2210 MFI
[6]
  pSTAT3 MFI, NK cells, 0.0001 nM (unstimulated 1315): 1230 MFI
  pSTAT3 MFI, NK cells, 0.001 nM (unstimulated 1315): 1260 MFI
  pSTAT3 MFI, NK cells, 0.01 nM (unstimulated 1315): 1250 MFI
  pSTAT3 MFI, NK cells, 0.1 nM (unstimulated 1315): 1260 MFI
  pSTAT3 MFI, NK cells, 1 nM (unstimulated 1315): 1530 MFI
  pSTAT3 MFI, NK cells, 10 nM (unstimulated 1315): 2000 MFI
  pSTAT3 MFI, NK cells, 100 nM (unstimulated 1315): 1940 MFI
